The values below come from the supplement of paper PMC12764529.

± gives the half width of the 95% confidence interval. Where only a bound is given, the exact number is not on record here.

Data set [1] in a line: folding stability dG unfold from trypsin proteolysis; higher = more stable. Put shortly: (§1)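 Unfolding free energy was derived, per protease or combined, by relating Bayesian-fitted K50 values from sequencing counts to a sequence-predicted unfolded-state K50 and a shared folded-state K50. The underlying digests exposed cysteine-free mini-proteins under 80 residues, in a PA-tagged cDNA display construct, to trypsin and chymotrypsin at 11 threefold-diluted concentrations and to a no-protease condition. A filter kept only designs with AlphaFold2 dimer inter-PAE above 15.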

Data set [2] can be described thus: folding stability dG unfold (combined trypsin and chymotrypsin); higher = more stable. The method in brief:
as §1

Data set [3] in a line: folding stability dG unfold from chymotrypsin proteolysis; higher = more stable. Put shortly: as §1

“SAGGSAGGSEEEVEIKVVEPVDVVVLPDGTVRRTFRVEDGALLVITVHFPPDGNPVGEIEIFPSAGGSAGGS [r20_240_TrMRF]”: the figures for the “folding stability dG unfold” value in data set [1], in data set [2] and in data set [3] were 1.56 ± 0.032 kcal/mol, 1.68 ± 0.16 kcal/mol and 1.64 ± 0.04 kcal/mol, respectively.
With “SAGGSAGGSEEEVEIVDVEIEEKDGKLVIRAKIRNKETGELYEVTLVFDKETGELHLEVRKLPSAGGSAGGS [r12_14_TrROS_Hall]”, the “folding stability dG unfold” value in data set [1] is 3.99 ± 0.097 kcal/mol; in data set [2], 3.95 ± 0.15 kcal/mol; in data set [3], 3.78 ± 0.13 kcal/mol.
The corresponding values for “SAGGSAGGSEEVVVVEVEGELVVVTKEETVTVVPAPPPPPLTAEQRALAKELEKLGLEVEIRDSAGGSAGGS [r12_172_TrROS_Hall]” are -0.192 ± 0.16 kcal/mol, -0.38 ± 0.37 kcal/mol and -0.505 ± 0.11 kcal/mol.
The corresponding values for “SAGGSAGGSEITIFIKGLPDPEAIADQIADAFGYPVKDVDVQRMPNNPWMMITVTYNGKEITISAGGSAGGS [r12_935_TrROS]” are 1.58 ± 0.022 kcal/mol, 1.86 ± 0.083 kcal/mol and 1.97 ± 0.03 kcal/mol.
The corresponding values for “SAGGSAGGSEITITLDEETGELHITVPESVKEVKIKVNGEEKTVTLKPGQTLTIPLENVEIEESAGGSAGGS [r20_26_TrROS_Hall]” are 1.75 ± 0.11 kcal/mol, 1.7 ± 0.2 kcal/mol and 1.55 ± 0.063 kcal/mol.
On to “SAGGSAGGSEITLVFKTKEEAEKAAEELAKKYNVEVTVEENEETGLYVVTIKLPENGKEITILSAGGSAGGS [r12_635_TrROS_Hall]”, for which the “folding stability dG unfold” value worked out at 1.68 ± 0.064 kcal/mol in data set [1], 1.96 ± 0.19 kcal/mol in data set [2] and 2.03 ± 0.059 kcal/mol in data set [3].
The corresponding values for “SAGGSAGGSEKEGTLLVKLINPENPEEKVIPLKFKVKTKEDVDTFLENIKKKYPGVTVEVEDLSAGGSAGGS [r12_65_TrMRF]” are 0.659 ± 0.049 kcal/mol, 0.643 ± 0.17 kcal/mol and 0.684 ± 0.21 kcal/mol.
Regarding “SAGGSAGGSEKEIEIELPEGAEIVEIDEEKGVITVRVNGKLIEIEIKPVKVEKVEVELPPEEESAGGSAGGS [r12_243_TrROS_Hall]”, the results for the “folding stability dG unfold” value in data set [1], in data set [2] and in data set [3] were 2.77 ± 0.19 kcal/mol, 2.4 ± 0.17 kcal/mol and 1.73 ± 0.13 kcal/mol, respectively.
Turning to “SAGGSAGGSEKEIEVNGKKITIEKNEDGSYKLIIEVNGKKYEITLSLEELKKKNLTIEELLKKSAGGSAGGS [r20_90_TrROS_Hall]”, the results for the “folding stability dG unfold” value in data set [1], in data set [2] and in data set [3] were 1.92 ± 0.072 kcal/mol, 3.26 ± 0.16 kcal/mol and 3.61 ± 0.13 kcal/mol, respectively.
The corresponding values for “SAGGSAGGSEKEVYVRNENGELYRFRAKAAPKLKLKLKLELERDENGNLSLRLELEVVSEEDLSAGGSAGGS [r12_1027_TrROS_Hall]” are 3.57 ± 0.14 kcal/mol, 4.63 ± 0.4 kcal/mol and 5.18 ± 0.15 kcal/mol.
The corresponding values for “SAGGSAGGSEKKFKIVSVKVEYNKETGTVTIEVEIYDEKTGKLVLKATITINKNGELKITLEPSAGGSAGGS [r12_115_TrROS_Hall]” are 3.9 ± 0.45 kcal/mol, more than 6 kcal/mol and 5.26 ± 0.46 kcal/mol.
The corresponding values for “SAGGSAGGSEKPEVEKITLEITLTDEDGNKHTIKVELVRNAKTKKYYLRITLEDGSEFVFEIDSAGGSAGGS [r12_286_TrROS_Hall]” are 3.88 ± 0.14 kcal/mol, 4.71 ± 0.13 kcal/mol and 4.83 ± 0.14 kcal/mol.
For “SAGGSAGGSEKVTIRFPAKELRERFPNATPEQIADRIAKKFPNIKRIEVEQEPGYYRITVQVESAGGSAGGS [r12_590_TrROS]”, the results for the “folding stability dG unfold” value in data set [1], in data set [2] and in data set [3] were 2.58 ± 0.12 kcal/mol, 2.15 ± 0.12 kcal/mol and 1.49 ± 0.043 kcal/mol, respectively.
Regarding “SAGGSAGGSELNIEKIVVLDYDPETGLAYVKIFYGDGEVKEFKVKSLEELKEKFPDVEILEKGSAGGSAGGS [r12_403_TrMRF]”, the “folding stability dG unfold” value in data set [1] is 3.64 ± 0.12 kcal/mol; in data set [2], 4.43 ± 0.065 kcal/mol; in data set [3] it was 4.57 ± 0.084 kcal/mol.
The corresponding values for “SAGGSAGGSELPIKEITVTSYDPKTGKYTVTITQGEGPTYTTTATSPEEVKKRYPDVKVTTSGSAGGSAGGS [r12_403_JUSTAS]” are 0.434 ± 0.053 kcal/mol, 0.718 ± 0.056 kcal/mol and 0.786 ± 0.035 kcal/mol.
The corresponding values for “SAGGSAGGSEPVTVMFWFDSPEEIDELIDELKGAGIKKVEMEPFPGRYWLTITVDGAEIHIMFSAGGSAGGS [r12_846_TrROS]” are 2.45 ± 0.067 kcal/mol, 3.29 ± 0.14 kcal/mol and 3.786 ± 0.031 kcal/mol.
“SAGGSAGGSEPVVLTLPTPRGGRITITYDPSSNTATVTLPDGTVVTLSVTSVAEAKAAALAALSAGGSAGGS [r12_866_JUSTAS]”: the “folding stability dG unfold” value in data set [1] was 3.18 ± 0.04 kcal/mol; in data set [2], 3.515 ± 0.025 kcal/mol; in data set [3], 3.698 ± 0.018 kcal/mol.
The corresponding values for “SAGGSAGGSESKITILVLDEETQELYLIEVTLKYNPETGELETEMKIEKITLKPGEKLDLKDLSAGGSAGGS [r12_700_TrROS_Hall]” are 2.43 ± 0.2 kcal/mol, 2.94 ± 0.2 kcal/mol and 3.28 ± 0.13 kcal/mol.
The corresponding values for “SAGGSAGGSETVTLELTLEDGRTLRIEFDPETQRLTVTFPDGSKQEIEVETLDDALAALLEALSAGGSAGGS [r12_866_TrROS_Hall]” are 2.91 ± 0.11 kcal/mol, 3.6 ± 0.062 kcal/mol and 3.81 ± 0.072 kcal/mol.
With “SAGGSAGGSFEFPENRPNAKVKVVVQRPDGSPEEFEAEVLPDGTVTLDLPDYPIDRILSVEFGSAGGSAGGS [r12_477_TrMRF]”, the “folding stability dG unfold” value in data set [1] was 0.0306 ± 0.12 kcal/mol; in data set [2] it was -0.221 ± 0.17 kcal/mol; in data set [3], -0.377 ± 0.19 kcal/mol.
The corresponding values for “SAGGSAGGSFRIDPEKIEKVKHHRNPNGGGYHTIRLPGGPVKIPFRGMDPGDMEDQVKNFLKNSAGGSAGGS [r12_585_TrROS]” are 0.161 ± 0.11 kcal/mol, 0.236 ± 0.14 kcal/mol and 0.267 ± 0.19 kcal/mol.
The corresponding values for “SAGGSAGGSFVDPDGYKVIEFPIPMDDPGRIKEEVMDQFNLKDVKVEWEPTPGWYWVSIIVEPSAGGSAGGS [r12_929_TrROS]” are 0.74 ± 0.093 kcal/mol, 0.832 ± 0.14 kcal/mol and 0.815 ± 0.16 kcal/mol.
The corresponding values for “SAGGSAGGSGDDIPTLTLVIKVDPNAITPEDIEEIKQAFLDLGYKEVTVTRNPETGYLVVELGSAGGSAGGS [r12_1025_TrMRF]” are 3.03 ± 0.25 kcal/mol, 3.01 ± 0.21 kcal/mol and 2.93 ± 0.11 kcal/mol.
For the sequence “SAGGSAGGSGFKIVKVDTETGYVYVEVPKSAEKELEKLPSVEKVEEKEDSVLYRLRIPPFAALSAGGSAGGS [r12_694_TrMRF]”, the “folding stability dG unfold” value in data set [1] is 1.78 ± 0.069 kcal/mol; in data set [2] it was 1.81 ± 0.19 kcal/mol; in data set [3], 1.95 ± 0.086 kcal/mol.
The corresponding values for “SAGGSAGGSGGMMSRTINVSVNPAPGESPEDIVKALAAELGVTIKSVKYSTSSSSLTFTIEVVSAGGSAGGS [r20_188_JUSTAS]” are 1.05 ± 0.04 kcal/mol, 2.16 ± 0.068 kcal/mol and 2.48 ± 0.077 kcal/mol.
Turning to “SAGGSAGGSGIKIIMEFIFPDDGYIFKIEIDIKPNPENGEPVIEMKIEMYPIDPGQPPDLKDLSAGGSAGGS [r12_700_TrROS]”, the “folding stability dG unfold” value in data set [1] came to 2.48 ± 0.11 kcal/mol; in data set [2], 3.26 ± 0.2 kcal/mol; in data set [3], 3.45 ± 0.071 kcal/mol.
The corresponding values for “SAGGSAGGSGIKITEYKINPETGTIEKTEIYIKPIPNTNKLKIEKKTKSIPILPDQKPDLSLDSAGGSAGGS [r12_700_TrMRF]” are -0.235 ± 0.18 kcal/mol, 0.412 ± 0.27 kcal/mol and 0.809 ± 0.36 kcal/mol.
The corresponding values for “SAGGSAGGSGITIPAGSPEKVYELLSALEKLGFKPKKVSVSGNYVIVDFENGIPVNIEINPGKSAGGSAGGS [r20_93_TrMRF]” are 1.06 ± 0.059 kcal/mol, 2.38 ± 0.052 kcal/mol and 2.85 ± 0.039 kcal/mol.
“SAGGSAGGSGKKRKVEIPIFFSGPPEVADNLAKTLAQELGLPPEDVDIEIKVIPIMPPEQMAESAGGSAGGS [r12_1066_TrROS]”: the “folding stability dG unfold” value in data set [1] turned out to be 0.477 ± 0.054 kcal/mol; in data set [2] it was 0.721 ± 0.076 kcal/mol; in data set [3], 0.818 ± 0.046 kcal/mol.
The corresponding values for “SAGGSAGGSGLTKELAKKFNVTAIEEFENGLVKILTKPPIKGNPYLAIIDPKNKKVYIIPLNPSAGGSAGGS [r12_944_TrMRF]” are 0.849 ± 0.037 kcal/mol, 1.29 ± 0.071 kcal/mol and 1.62 ± 0.082 kcal/mol.
The corresponding values for “SAGGSAGGSGMEKIVVEVKFPDGTVETYEFPAGVPVNIDPAVTGDVKITTLDPEGKTTEYVLKSAGGSAGGS [r12_380_JUSTAS]” are -0.0804 ± 0.046 kcal/mol, -0.118 ± 0.1 kcal/mol and -0.297 ± 0.2 kcal/mol.
On to “SAGGSAGGSGMELEKLLESVKEVKVEPTSSGEKEVTITLKPPEPSETEVKIDKETYEKLLELKSAGGSAGGS [r12_466_JUSTAS]”, for which the “folding stability dG unfold” value is -0.907 ± 0.21 kcal/mol in data set [1], 0.137 ± 0.12 kcal/mol in data set [2] and 0.404 ± 0.024 kcal/mol in data set [3].
On to “SAGGSAGGSGMKTLTIEFPNVTLEEAKEAVLKLLEELGLEPIPLEKVTITYHPENPNVITVVESAGGSAGGS [r12_122_JUSTAS]”, for which the “folding stability dG unfold” value in data set [1] is 1.5 ± 0.098 kcal/mol; in data set [2] it was 1.35 ± 0.17 kcal/mol; in data set [3], 1.14 ± 0.12 kcal/mol.
The corresponding values for “SAGGSAGGSGPMPVVVPVEVVVAPGEVDAYVARLRAEGLEVLSVETEPDPEGGTRVTVTVRRLSAGGSAGGS [r12_905_JUSTAS]” are 2.74 ± 0.054 kcal/mol, 3.41 ± 0.059 kcal/mol and 3.72 ± 0.057 kcal/mol.
“SAGGSAGGSGSLRLRVRSPEQALEWLRRVLPPDFDLTPEELEELVRFLLATSEVTPDGYLLLRSAGGSAGGS [r12_983_TrMRF]”: the “folding stability dG unfold” value in data set [1] amounted to 1.826 ± 0.018 kcal/mol; in data set [2], 2.32 ± 0.042 kcal/mol; in data set [3] it was 2.52 ± 0.051 kcal/mol.
